This passage reports US10 signal intensity relative to the maximum (HLA-G-bound US10) results from article PMC11189632.

What all share (experiment): co-IP
Assay [1] has as its target β2m-assembled HA-HLA-C*07:02 (human | human (endogenous in HeLa)).
Assay [2] has as its target β2m-assembled HA-HLA-G*01:01 (human | human (endogenous in HeLa)).
Assay [3] deals with β2m-assembled HA-HLA-C*05:01 (human | human (endogenous in HeLa)).

B1: HCMV glycoprotein US10, untagged, transiently expressed (natural protein)
chain: ATEETREPTYFTCGCVIQNHVLKGAVKLYGQFPSPKTLRASAWLHDGENHERHRQPILVEGTATATEALYILLPTELSSPEGNRPRNYSATLTLASRDCYERFVCPVYDSGTPMGVLMNLTYLWYLGDYGAILKIYFGLFCGACVITRSLLLICGYYPPRE
For B1, the US10 signal intensity relative to the maximum (HLA-G-bound US10) in assay [1] is 0.2 fold of max; in assay [2] it was 1 fold of max; in assay [3], 0.7 fold of max.
